IC50, RSV A2 neutralisation on HEp2 cells (standard TCID50 culture assay) data for four substances are collected here from patent publication KR20120084755A.

In this assay the target is RSV A2 바이러스의 F 단백질 (Respiratory Syncytial Virus (RSV), strain A2) (UniProt P03420). As to the kind of experiment: cell-based or functional assay.
UniProt P03420, sequence (P03420 26-574): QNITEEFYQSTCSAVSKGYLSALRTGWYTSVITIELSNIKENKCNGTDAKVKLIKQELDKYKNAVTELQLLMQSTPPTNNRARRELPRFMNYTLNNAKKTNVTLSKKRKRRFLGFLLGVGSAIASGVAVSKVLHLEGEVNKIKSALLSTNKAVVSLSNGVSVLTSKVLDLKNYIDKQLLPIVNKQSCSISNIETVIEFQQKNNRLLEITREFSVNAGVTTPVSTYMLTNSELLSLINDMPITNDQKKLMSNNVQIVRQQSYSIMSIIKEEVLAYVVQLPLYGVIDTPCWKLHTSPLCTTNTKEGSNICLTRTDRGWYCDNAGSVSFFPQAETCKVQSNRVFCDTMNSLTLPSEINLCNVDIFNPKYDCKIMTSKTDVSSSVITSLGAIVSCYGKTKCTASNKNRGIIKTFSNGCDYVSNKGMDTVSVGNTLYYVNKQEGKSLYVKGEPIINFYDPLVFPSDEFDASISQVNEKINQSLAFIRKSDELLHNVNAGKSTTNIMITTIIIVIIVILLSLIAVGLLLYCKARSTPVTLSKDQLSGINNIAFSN

Regarding AM16 (antibody), the IC50, RSV A2 neutralisation on HEp2 cells (standard TCID50 culture assay) is 78.7 ng/㎖.
In turn, AM23 (antibody) showed an IC50, RSV A2 neutralisation on HEp2 cells (standard TCID50 culture assay) of 4.18 ng/㎖.
Next, D25 (antibody): 1.28 ng/㎖.
As to 팔리비주마브(Palivizumab) (antibody), the IC50, RSV A2 neutralisation on HEp2 cells (standard TCID50 culture assay) came to 152 ng/㎖.
